Assay [1] addresses biotinylated equine IL31 (equine). In words: BLI, biotinylated equine IL31 immobilized to the sensor; preliminary measurement; lower end of the range; preliminary measurement. For orientation: In BLI a coated tip is dipped into the sample, and binding shifts an interference pattern.
Assay [2] has the same target. In words: BLI, biotinylated equine IL31 immobilized to the sensor; preliminary measurement; upper end of the range; preliminary measurement.
The target of assay [3] is T1, canine IL31 with C-terminal polyHis tag (canine, biotinylated at primary amine groups (NHS-LC-Biotin) or at glycan groups (Biotin-LC-Hydrazide)).
T1 construct: also called biotinylated canine IL31; canine IL31 (amine-conjugated-biotin); not shown: C-terminal poly-His tag
T1 chain: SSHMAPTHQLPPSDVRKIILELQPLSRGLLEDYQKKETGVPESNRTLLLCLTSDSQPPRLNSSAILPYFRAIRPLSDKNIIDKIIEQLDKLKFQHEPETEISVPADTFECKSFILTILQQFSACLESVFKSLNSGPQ
Kind of assay: BLI (Octet), canine IL31 (amine-conjugated-biotin) on streptavidin tips, antibody at 400, 200, 66.6 and 33 nM, 2:1 model; canine IL31 (amine-conjugated-biotin). The procedure: (§1) The binding analysis was performed using a biosensor Octet as follows. Briefly, canine IL31 was biotinylated at primary amine groups using EZ-Link™ NHS-LC-Biotin (Thermo Scientific, Catalog No. 21336) or at glycan groups using EZ-Link™ Biotin-LC-Hydrazide (ThermoFisher Scientific, Catalog No. 21340) according to the manufacturer's instructions. The free unreacted biotin was removed from biotinylated IL31 by extensive dialysis. Biotinylated canine IL31 was captured on streptavidin sensor tips. The association of four different concentrations (400, 200, 66.6, and 33 nM) of chimeric and caninized M14 antibody and human and canine IL31 (amine-conjugated-biotin) and the association of 100 nM of caninized M14 antibody and canine IL31 (glycan-conjugated-biotin) was monitored for ninety seconds. Dissociation was monitored for 600 seconds. A buffer only blank curve was subtracted to correct for any drift. The data were fit to a 2:1 binding model using ForteBio™ data analysis software to determine the kₒₙ, koff, and the Kd. The buffer for dilutions and all binding steps was: 20 mM phosphate, 150 mM NaCl, pH 7.2.

In assay [4] the target is T1, canine IL31 with C-terminal polyHis tag. Kind of assay: BLI (Octet), canine IL31 (glycan-conjugated-biotin) on streptavidin tips, antibody at 100 nM, 2:1 model; canine IL31 (glycan-conjugated-biotin). The procedure: as §1

biotinylated equine IL31 (equine), sequence (chain, as listed by the source limits assumed, form in doubt): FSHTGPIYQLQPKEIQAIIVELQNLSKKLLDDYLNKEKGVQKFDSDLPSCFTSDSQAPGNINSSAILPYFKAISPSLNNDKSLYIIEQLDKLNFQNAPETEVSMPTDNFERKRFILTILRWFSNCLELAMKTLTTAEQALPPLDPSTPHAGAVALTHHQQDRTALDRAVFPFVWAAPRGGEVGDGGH

B1: mouse monoclonal antibody M14 (antibody, V domains shown)
VH: EVQLQESGPSLVKPSQTLSLTCSVTGDSITSGYWNWIRKFPGNKLEYMGYISYSGITDYNPSLKSRISITRDTSKNQYYLQLNSVTTEDTATYYCARYGNYGYAMDYWGQGTSVTVSS
VL: DIVLTQSPASLAVSLGQRATISCRASESVDTYGNSFMHWYQQKSGQSPKLLIYRASNLESGIPARFGGSGSRTDFTLTIDPVEADDVATYYCQQSYEDPWTFGGGTKLEIK
B1: the Kd in assay [1] is over 10 nM; in assay [2] it was under 50 nM.

B2: caninized M14 IgG-B (antibody, V domains shown)
VH: EVQLVESGPSLVKPGGSLRLTCSVTGDSITSGYWNWIRKFPGNKLEYMGYISYSGITDYNPSLKSRITISRDTSKNQYYLQLNSVTTEDTATYYCARYGNYGYAMDYWGQGTLVTVSS
VL: DIVMTQSPASLSVSLGQRATISCRASESVDTYGNSFMHWYQQKPGQSPKLLIYRASNLESGIPARFGGSGSGTDFTLTIDPVQADDVATYYCQQSYEDPWTFGGGTKLEIKR
notes: canine IgG-B heavy chain and canine light chain constant region; also called caninized M14 antibody
Consider B2, for which the dissociation constant (Kd) in assay [3] is under 0.01 nM. In assay [4], this molecule came in with a Kd of under 1 pM and a koff of under 1e-07 s⁻¹.

As usually defined, the Kd is the constant that tells how readily two partners part at equilibrium. Higher therefore signals lower affinity. The term koff denotes a measure of how fast the partners let go of each other.

The record behind these values is patent US20200062840A1 (KINDRED BIOSCIENCES, published 2020).
